Test results published in patent US20170259217A1 (GOVERNORS OF THE UNIVERSITY OF ALBERTA, published 2017).
Non-standard residues stand in square brackets, D forms with d. amino hexenoic acid = amino hexenoic acid, a vinyl (alkene)-bearing residue; Gly(octyl) = CCCCCCCC[C@H](N)C(=O)O; NMeL = CN[C@@H](CC(C)C)C(=O)O

Target: T1, OmpG, bacterial porin (Escherichia coli K12) (Escherichia coli K12, UniProt P76045 22-301, limits assumed)
T1 sequence (looked up): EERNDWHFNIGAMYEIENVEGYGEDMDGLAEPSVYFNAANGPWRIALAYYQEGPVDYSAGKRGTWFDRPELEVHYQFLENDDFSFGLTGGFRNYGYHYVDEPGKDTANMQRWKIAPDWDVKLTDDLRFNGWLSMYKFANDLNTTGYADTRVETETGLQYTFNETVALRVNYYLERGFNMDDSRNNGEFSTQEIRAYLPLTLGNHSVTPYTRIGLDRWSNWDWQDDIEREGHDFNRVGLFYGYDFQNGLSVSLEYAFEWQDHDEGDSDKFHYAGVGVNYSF
Assay: circular dichroism of peptide-stabilized protein

binding result: binds
B1: vinyl (alkene mid-) functionalized β-sheet peptide, structure (8): acetyl-(octyl)Gly-Ser-Leu-Ser-amino hexenoic acid-Leu-Asp-(octyl)Gly-Asp-Gly-Leu-NH2 (peptide)
peptide: Ac-[Gly(octyl)]SLS[amino hexenoic acid][NMeL]D[Gly(octyl)]DGL-NH2
notes: Synthetic 11-residue peptide; also called Vinyl-BP1
